Measurements as given in patent publication US20170137467A1 (CHROMOTEK, published 2017).
Square brackets hold non-standard residues; d marks the D form. GABA = NCCCC(=O)O

T1: BC2T Q12C(Abu) (SMILES …)
T1 construct: positional scanning library member
T1 peptide: Ac-PDRKAAVSHWQ[GABA]-NH2

T2: BC2T H9R
T2 construct: positional scanning library member
T2 peptide: Ac-PDRKAAVSRWQQ-NH2

T3: BC2T S8N
T3 construct: positional scanning library member
T3 peptide: Ac-PDRKAAVNHWQQ-NH2

T4: BC2T W10V
T4 construct: positional scanning library member
T4 peptide: Ac-PDRKAAVSHVQQ-NH2

T5: BC2T Q12Y
T5 construct: positional scanning library member
T5 peptide: Ac-PDRKAAVSHWQY-NH2

T6: BC2T S8Q
T6 construct: positional scanning library member
T6 peptide: Ac-PDRKAAVQHWQQ-NH2

T7: BC2T H9T
T7 construct: positional scanning library member
T7 peptide: Ac-PDRKAAVSTWQQ-NH2

T8: BC2T Q12S
T8 construct: positional scanning library member
T8 peptide: Ac-PDRKAAVSHWQS-NH2

T9: BC2T Q11W
T9 construct: positional scanning library member
T9 peptide: Ac-PDRKAAVSHWWQ-NH2

T10: BC2T W10F
T10 construct: positional scanning library member
T10 peptide: Ac-PDRKAAVSHFQQ-NH2

T11: BC2T H9F
T11 construct: positional scanning library member
T11 peptide: Ac-PDRKAAVSFWQQ-NH2

T12: BC2T Q11R
T12 construct: positional scanning library member
T12 peptide: Ac-PDRKAAVSHWRQ-NH2

T13: BC2T Q12R
T13 construct: positional scanning library member
T13 peptide: Ac-PDRKAAVSHWQR-NH2

T14: BC2T Q11M
T14 construct: positional scanning library member
T14 peptide: Ac-PDRKAAVSHWMQ-NH2

T15: BC2T H9M
T15 construct: positional scanning library member
T15 peptide: Ac-PDRKAAVSMWQQ-NH2

T16: BC2T H9C(Abu) (SMILES …)
T16 construct: positional scanning library member
T16 peptide: Ac-PDRKAAVS[GABA]WQQ-NH2

T17: BC2T W10R
T17 construct: positional scanning library member
T17 peptide: Ac-PDRKAAVSHRQQ-NH2

T18: BC2T H9A
T18 construct: positional scanning library member
T18 peptide: Ac-PDRKAAVSAWQQ-NH2

T19: BC2T Q11Y
T19 construct: positional scanning library member
T19 peptide: Ac-PDRKAAVSHWYQ-NH2


Tests used:
Assay in all cases: positional peptide library pulldown on immobilised Nb, LC-MS of supernatant; signal ratio to control GFP-Nb (1 = not captured, near 0 = captured)
BC2T Q12C(Abu) = molecular target: T1, BC2T Q12C(Abu)
Excerpt: (§1) In total, 12 different BC2T libraries displaying all 20 proteinogenic amino acids in one single position of the peptide were used in immunoprecipitation experiments. […] The direct comparison with the GFP-Nb made it possible to determine the quantitative degree of peptide capture without the need of labeled standards. […] The more peptide was captured the more the value approximates 0. It was not possible to discriminate between isoleucine (I) and leucine (L) peptide versions since these peptides are isobaric.
(§2) To investigate the binding specificity of the BC2T and derived mutants peptide libraries for each amino acid position of the sequence […] (SEQ ID NO:4) were synthesized with acetyl and amide groups located at the N-termini or C-termini respectively (Intavis). […] Incubations were performed in 300 μl PBS/0.01% CHAPS for 1 h on a HulaMixer (Life Technologies). Subsequent to a centrifugation step 10 μl supernatant were analyzed in a LC-MS procedure. Peptides were separated using an UltiMate3000 RSLCnano System (Thermo Scientific), composed of a C18 PepMap100μ-Precolumn (300 μm×5 mm; particle size: 5 μm; pore size: 100 Å—Thermo Scientific) and a C18 analytical column (Acclaim Rapid Separation LC (RSLC) Column: 150 mm×5 mm; particle size: 2.2 μm; pore size: 100 Å—Thermo Scientific). A step gradient was applied starting at 8% and ending after 20 min at 30% eluent B (80% acetonitrile, 20% H₂O, 0.1% formic acid).

BC2T H9R = molecular target: T2, BC2T H9R
Excerpt: as §1, §2

BC2T S8N = molecular target: T3, BC2T S8N
Excerpt: as §1, §2

BC2T W10V = molecular target: T4, BC2T W10V
Excerpt: as §1, §2

BC2T Q12Y = molecular target: T5, BC2T Q12Y
Excerpt: as §1, §2

BC2T S8Q = molecular target: T6, BC2T S8Q
Excerpt: as §1, §2

BC2T H9T = molecular target: T7, BC2T H9T
Excerpt: as §1, §2

BC2T Q12S = molecular target: T8, BC2T Q12S
Excerpt: as §1, §2

BC2T Q11W = molecular target: T9, BC2T Q11W
Excerpt: as §1, §2

BC2T Q12(I/L1) = molecular target: T20, BC2T Q12(I/L1) (N-terminal acetyl; C-terminal amide)
T20 construct: positional scanning library member; I or L not resolved
Excerpt: as §1, §2

BC2T W10F = molecular target: T10, BC2T W10F
Excerpt: as §1, §2

BC2T H9F = molecular target: T11, BC2T H9F
Excerpt: as §1, §2

BC2T Q11R = molecular target: T12, BC2T Q11R
Excerpt: as §1, §2

BC2T Q12R = molecular target: T13, BC2T Q12R
Excerpt: as §1, §2

BC2T Q11M = molecular target: T14, BC2T Q11M
Excerpt: as §1, §2

BC2T H9M = molecular target: T15, BC2T H9M
Excerpt: as §1, §2

BC2T H9C(Abu) = molecular target: T16, BC2T H9C(Abu)
Excerpt: as §1, §2

BC2T W10R = molecular target: T17, BC2T W10R
Excerpt: as §1, §2

BC2T H9A = molecular target: T18, BC2T H9A
Excerpt: as §1, §2

BC2T Q11(I/L1) = molecular target: T21, BC2T Q11(I/L1) (N-terminal acetyl; C-terminal amide)
T21 construct: positional scanning library member; I or L not resolved
Excerpt: as §1, §2

BC2T Q11Y = molecular target: T19, BC2T Q11Y
Excerpt: as §1, §2

Binder	ratio (BC2T Q12C(Abu))	ratio (BC2T H9R)	ratio (BC2T S8N)	ratio (BC2T W10V)	ratio (BC2T Q12Y)	ratio (BC2T S8Q)	ratio (BC2T H9T)	ratio (BC2T Q12S)	ratio (BC2T Q11W)	ratio (BC2T Q12(I/L1))	ratio (BC2T W10F)	ratio (BC2T H9F)	ratio (BC2T Q11R)	ratio (BC2T Q12R)	ratio (BC2T Q11M)	ratio (BC2T H9M)	ratio (BC2T H9C(Abu))	ratio (BC2T W10R)	ratio (BC2T H9A)	ratio (BC2T Q11(I/L1))	further results
BC2 nanobody (VHH, immobilised on beads in this assay; also called BC2-Nb; BC2 nanotrap (immobilised)) VHH: QVQLVESGGGLVQPGGSLTLSCTASGFTLDHYDIGWFRQAPGKEREGVSCINNSDDDTYYADSVKGRFTIFMDNAKDTVYLQMNSLKPEDTAIYYCAEARGCKRGRYEYDFWGQGTQVTVSS	0.1	0.1	0.2	1	0.1	0.7	0.2	0.1	0	0.1	0.9	0.1	0	0.1	0.1	0.1	0.2	1	0.2	0.1	ratio (BC2T Q11Y): 0
BC2-NbR106S (VHH, headlock mutant of BC2-Nb; immobilised on beads in this assay) VHH: QVQLVESGGGLVQPGGSLTLSCTASGFTLDHYDIGWFRQAPGKEREGVSCINNSDDDTYYADSVKGRFTIFMDNAKDTVYLQMNSLKPEDTAIYYCAEARGCKRGSYEYDFWGQGTQVTVSS	0.2	0.2	0.7	1	0.3	0.9	0.5	0.2	0.1	0.2	1.1	0.3	0.1	0.1	0.3	0.3	0.5	1.1	0.5	0.2	ratio (BC2T Q11Y): 0.1
